PMC8883962

Tests used:
[1] = molecular target: Staphylococcal Protein A (SpA) (Staphylococcus aureus) (UniProt P38507); experiment: BLI
[2] = molecular target: Streptococcal Protein G (SpG) (groups C and G of Streptococcal bacteria) (UniProt P06654); experiment: BLI

Substance	Kd [1] [nM]	Kd [2] [nM]
Trastuzumab Vκ2–VH2 IgG1 (from UniProt P01857)	1.46	0.69
Pertuzumab Vκ6–VH3 IgG1 (from UniProt P01857)	0.41	0.28
Pertuzumab Vκ6–VH2 IgG1 (from UniProt P01857)	0.79	0.31
Pertuzumab Vκ6–VH1 IgG1 (from UniProt P01857)	0.94	0.29
Pertuzumab Vκ6–VH5 IgG1 (from UniProt P01857)	1.26	0.26
Pertuzumab Vκ5–VH3 IgG1 (from UniProt P01857)	0.94	0.34
Pertuzumab Vκ2–VH5 IgG1 (from UniProt P01857)	1.62	0.3
Pertuzumab Vκ5–VH7 IgG1 (from UniProt P01857)	–	0.32
Trastuzumab Vκ2–VH4 IgG1 (from UniProt P01857)	1.29	0.28
Pertuzumab Vκ2–VH6 IgG1 (from UniProt P01857)	1.55	0.32
Trastuzumab Vκ2–VH6 IgG1 (from UniProt P01857)	1.79	–
Pertuzumab Vκ6–VH7 IgG1 (from UniProt P01857)	0.98	0.28
Trastuzumab Vκ2–VH3 IgG1 (from UniProt P01857)	0.24	0.29
Trastuzumab Vκ2–VH7 IgG1 (from UniProt P01857)	0.53	0.23
Trastuzumab Vκ6–VH3 IgG1 (from UniProt P01857)	0.31	0.27
Trastuzumab Vκ6–VH1 IgG1 (from UniProt P01857)	–	0.32
Pertuzumab Vκ2–VH3 IgG1 (from UniProt P01857)	0.76	0.38
Trastuzumab Vκ2–VH5 IgG1 (from UniProt P01857)	1.11	0.27
Trastuzumab Vκ6–VH7 IgG1 (from UniProt P01857)	0.6	0.3
Pertuzumab Vκ6–VH4 IgG1 (from UniProt P01857)	0.81	0.27
Trastuzumab Vκ6–VH4 IgG1 (from UniProt P01857)	–	0.36
Pertuzumab Vκ2–VH7 IgG1 (from UniProt P01857)	–	0.36
Trastuzumab Vκ5–VH3 IgG1 (from UniProt P01857)	–	0.32
Trastuzumab Vκ6–VH5 IgG1 (from UniProt P01857)	0.84	–
Pertuzumab Vκ2–VH2 IgG1 (from UniProt P01857)	1.82	0.36
Trastuzumab Vκ6–VH6 IgG1 (from UniProt P01857)	1.78	0.51
Pertuzumab Vκ2–VH4 IgG1 (from UniProt P01857)	1.57	0.25
Trastuzumab Vκ2–VH1 IgG1 (from UniProt P01857)	–	0.39
